Values quoted from earlier work as cited in patent US9700485B2, “Delamination resistant pharmaceutical glass containers containing active pharmaceutical ingredients” (Corning Incorporated, priority 2013, dated 2017).
Where two headings read alike, the source gives them in different places.

How the values were obtained:
[1] = shaking test, 5 samples, cited from earlier work
[2] = in use test, 10 samples, cited from earlier work
HT-29 cells = details: cited from earlier work
DiFi cells [3] = details: 72 hours; cited from earlier work
EGFR [4] = target: T1, EGFR (Homo sapiens, UniProt P00533); design: phosphorylation assay, was carried out using BxPC3 or A431 cells; endogenous in cells; host or cells: BxPC3 or A431; details: BxPC3 and A431 cells; vs control antibody; cited from earlier work
BxPC-3 cells = details: 1.0 mg/mouse/injection; out of 8 mice; cited from earlier work
EGFR [5] = target: T1, EGFR; design: endogenous in cells; host or cells: A431; inhibition of EGFR phosphorylation: dose or concentration left out as unconfirmed; details: cited from earlier work
EGFR on HT29 cells = target: T2, EGFR on HT29 cells (Homo sapiens, UniProt P00533); details: 10 to 100 nM; cited from earlier work
T2 construct: HT29 cells were seeded at 2×10^4 cells per well; endogenous in cells; host or cells: HT29

MAP kinases p44/p42 = details: A431, BxPC3 and HT-29 cells; EGF stimulation; cited from earlier work
EGFR [6] = target: T1, EGFR; details: cited from earlier work
A431 and BxPC3 xenograft = A431 and BxPC3 xenograft sections; cited from earlier work
A431 cells = details: cited from earlier work; for tumor growth: three times per week
DiFi cells [7] = details: cited from earlier work
EGFR-AP fusion protein = details: cited from earlier work; for Koff / Kon: BIAcore, immobilized EGFR-AP fusion protein
human IL-17 [8] = target: T3, human IL-17 (Homo sapiens, UniProt Q16552); details: cited from earlier work; for Kd: read-out: KD or binding affinity
human IL-17 [9] = target: T3, human IL-17; details: as characterized in the description, cited from earlier work
[10] = −20° C. up to 16 days; DOE; cited from earlier work
[11] = 40° C. up to 14 days; DOE; cited from earlier work
hTNFSF13b = target: T4, hTNFSF13b (Homo sapiens, UniProt Q9Y275); details: as characterized in the description (e.g.); cited from earlier work
T4 construct: purchased Research Diagnostics, Inc., Flanders, N.J
T4 sequence (Q9Y275 134-285 limits assumed): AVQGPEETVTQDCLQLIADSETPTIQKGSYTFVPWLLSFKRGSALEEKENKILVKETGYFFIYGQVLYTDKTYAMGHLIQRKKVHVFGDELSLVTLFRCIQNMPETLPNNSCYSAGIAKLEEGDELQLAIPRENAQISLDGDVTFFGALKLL

T3 sequence (Q16552 24-155): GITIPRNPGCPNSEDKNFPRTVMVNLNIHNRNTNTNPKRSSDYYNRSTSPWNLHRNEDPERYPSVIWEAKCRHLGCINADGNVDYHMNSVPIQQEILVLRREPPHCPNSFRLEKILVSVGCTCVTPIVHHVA

21^A-Gly-30^Ba-L-Arg-30^B-L-Arg human insulin [Insulin glargine]
Number of Vials >15 FNU, 0 days ([1]; storage for 1 month at 5° C.): 0 | Number of Vials >15 FNU, 0.5 days ([1]; storage for 1 month at 5° C.): 0 | Number of Vials >15 FNU, 1 day ([1]; storage for 1 month at 5° C.): 0 | Number of Vials >15 FNU, 2 days ([1]; storage for 1 month at 5° C.): 2 | Number of Vials >15 FNU, 3 days ([1]; storage for 1 month at 5° C.): 3 | Number of Vials >15 FNU, 4 days ([1]; storage for 1 month at 5° C.): 3 | Number of Vials >15 FNU, 6 days ([1]; storage for 1 month at 5° C.): 4 | Number of Vials >15 FNU, 8 days ([1]; storage for 1 month at 5° C.): 4 | Number of Vials >15 FNU, 10 days ([1]; storage for 1 month at 5° C.): 4 | Number of Vials >15 FNU, 0 days ([1]; storage for 1 month at 25° C.): 0 | Number of Vials >15 FNU, 0.5 days ([1]; storage for 1 month at 25° C.): 0 | Number of Vials >15 FNU, 1 day ([1]; storage for 1 month at 25° C.): 0 | Number of Vials >15 FNU, 2 days ([1]; storage for 1 month at 25° C.): 1 | Number of Vials >15 FNU, 3 days ([1]; storage for 1 month at 25° C.): 1 | Number of Vials >15 FNU, 4 days ([1]; storage for 1 month at 25° C.): 1 | Number of Vials >15 FNU, 6 days ([1]; storage for 1 month at 25° C.): 1 | Number of Vials >15 FNU, 8 days ([1]; storage for 1 month at 25° C.): 2 | Number of Vials >15 FNU, 10 days ([1]; storage for 1 month at 25° C.): 3 | Number of Vials >15 FNU, 0 days ([1]; storage for 1 month at 37° C.): 0 | Number of Vials >15 FNU, 0.5 days ([1]; storage for 1 month at 37° C.): 0 | Number of Vials >15 FNU, 1 day ([1]; storage for 1 month at 37° C.): 0 | Number of Vials >15 FNU, 2 days ([1]; storage for 1 month at 37° C.): 2 | Number of Vials >15 FNU, 3 days ([1]; storage for 1 month at 37° C.): 5 | Number of Vials >15 FNU, 4 days ([1]; storage for 1 month at 37° C.): 5 | Number of Vials >15 FNU, 6 days ([1]; storage for 1 month at 37° C.): 5 | Number of Vials >15 FNU, 8 days ([1]; storage for 1 month at 37° C.): 5 | Number of Vials >15 FNU, 10 days ([1]; storage for 1 month at 37° C.): 5 | Number of vials with particle formation after 7 days ([2]; storage for 1 month at 37° C.): 0 | Number of vials with particle formation after 14 days ([2]; storage for 1 month at 37° C.): 10 | Number of vials with particle formation after 21 days ([2]; storage for 1 month at 37° C.): 10 | Number of vials with particle formation after 28 days ([2]; storage for 1 month at 37° C.): 10 | Number of vials with particle formation after 7 days ([2]; storage for 3 months at 5° C.): 7 | Number of vials with particle formation after 14 days ([2]; storage for 3 months at 5° C.): 10 | Number of vials with particle formation after 21 days ([2]; storage for 3 months at 5° C.): 10 | Number of vials with particle formation after 28 days ([2]; storage for 3 months at 5° C.): 10 | Number of vials with particle formation after 7 days ([2]; storage for 3 months at 25° C.): 9 | Number of vials with particle formation after 14 days ([2]; storage for 3 months at 25° C.): 10 | Number of vials with particle formation after 21 days ([2]; storage for 3 months at 25° C.): 10 | Number of vials with particle formation after 28 days ([2]; storage for 3 months at 25° C.): 10 | Number of vials with particle formation after 7 days ([2]; storage for 3 months at 37° C.): 5 | Number of vials with particle formation after 14 days ([2]; storage for 3 months at 37° C.): 9 | Number of vials with particle formation after 21 days ([2]; storage for 3 months at 37° C.): 10 | Number of vials with particle formation after 28 days ([2]; storage for 3 months at 37° C.): 10 | Number of vials with particle formation after 7 days ([2]; storage for 6 months at 5° C.): 7 | Number of vials with particle formation after 14 days ([2]; storage for 6 months at 5° C.): 10 | Number of vials with particle formation after 21 days ([2]; storage for 6 months at 5° C.): 10 | Number of vials with particle formation after 28 days ([2]; storage for 6 months at 5° C.): 10 | Number of vials with particle formation after 7 days ([2]; storage for 6 months at 25° C.): 10 | Number of vials with particle formation after 14 days ([2]; storage for 6 months at 25° C.): 10 | Number of vials with particle formation after 21 days ([2]; storage for 6 months at 25° C.): 10 | Number of vials with particle formation after 28 days ([2]; storage for 6 months at 25° C.): 10 | Number of vials with particle formation after 7 days ([2]; storage for 6 months at 37° C.): 10 | Number of vials with particle formation after 14 days ([2]; storage for 6 months at 37° C.): 10 | Number of vials with particle formation after 21 days ([2]; storage for 6 months at 37° C.): 10 | Number of vials with particle formation after 28 days ([2]; storage for 6 months at 37° C.): 10

Human IL-17: recombinant human IL-17 (R&D Systems)
AVG GROα (HT-29 cells; Human IL-17 0.10 ng/mL): 205.8 pg/mL | AVG GROα (HT-29 cells; Human IL-17 12.00 ng/mL): 960.0 pg/mL | AVG GROα (pg/mL) (HT-29 cells; Human IL-17 60.00 ng/mL): 1,556.0 pg/mL | AVG GROα (pg/mL) (HT-29 cells; Human IL-17 300.00 ng/mL): 2,047.5 pg/mL | AVG GROα (pg/mL) (HT-29 cells; Human IL-17 1500.00 ng/mL): 2,420.4 pg/mL

IMC-11F8: fully human monoclonal antibody (IgG1) that binds to human EGFR
inhibition of cell proliferation (MTT) (DiFi cells [3]): as potent an inhibitor of cell proliferation as IMC-C225 | phosphorylation of EGFR (KIRA) (EGFR [4]): marked decrease in phosphorylation of EGFR | tumor regression (BxPC-3 cells): 5 | inhibition of EGFR phosphorylation (EGFR [5]; A431, BxPC3, HT-29, lowest antibody concentration tested): Greater than 70% | EGFR phosphorylation (Western blot) (EGFR [5]; A431 cells): inhibits EGFR phosphorylation | inhibition of ^125I-EGF binding (EGFR on HT29 cells): as efficient as IMC-C225 in inhibiting ^125I-EGF binding to EGFR on HT29 cells | p44/42 MAP kinases phosphorylation (MAP kinases p44/p42): blocked p44/42 MAP kinases phosphorylation following EGF stimulation in A431, BxPC3 and HT-29 cells in a dose-dependent manner | binding to EGFR (ELISA) (EGFR [6]): comparable binding to EGFR | Ki-67 positive cells (A431 and BxPC3 xenograft): reduced the percentage of Ki-67 positive cells across the entire tumor section | tumor cell density and necrotic area (IHC) (A431 and BxPC3 xenograft): markedly reduced the tumor cell density and increased the area of necrotic acellular debris within the tumors | tumor growth (A431 cells; 0.3 mg dose i.p.): progression of tumor growth is retarded | tumor growth (A431 cells; 1 mg dose i.p.): as effective as IMC-C225 (CETUXIMAB) in suppressing or inhibiting tumor growth as compared to control animals | tumor regressions (A431 cells; 1.0 mg/mouse/injection, out of 8 animals): 6 | ADCC activity (DiFi cells [7]): mediate cell death via activation of the Antibody Dependent Cellular Cytotoxicity | Koff (EGFR-AP fusion protein; Format Fab): 36.7 ± 8.5 10^−4s^−1 | Kon (EGFR-AP fusion protein; Format Fab): 22.9 ± 9.9 10^5 M^−1s^−1 | Kd (EGFR-AP fusion protein; Format Fab, calculated as koff/kon): 1.78 ± 0.5 nM | Koff (EGFR-AP fusion protein; Format IgG): 5.8 ± 2.2 10^−4s^−1 | Kon (EGFR-AP fusion protein; Format IgG): 18.6 ± 7.7 10^5 M^−1s^−1

IL-17 receptor Fc-fusion protein: IL-17 receptor Fc-fusion protein (R&D #177-IR)
fast off-rate (human IL-17 [8]; Bivalent analyte model, 25° C.): 20.3 s⁻¹ | on-rate (human IL-17 [8]; Bivalent analyte model, 25° C.): 106000 M⁻¹ s⁻¹ | slow off-rate (human IL-17 [8]; Bivalent analyte model, 25° C.): 0.000163 s⁻¹ | Kd (human IL-17 [8]; from fast off-rate): 190000 nM | Kd (human IL-17 [8]; from slow off-rate): 1.5 nM

LY2439821: humanized anti-IL-17 (IL-17A) monoclonal antibody
koff rate from human IL-17 (human IL-17 [9]): less than 2×10^−5 s^−1 | Kd (human IL-17 [9]; read-out: binding affinity (KD) for human IL-17): < 0.007 nM

IMC-1121B: fully human monoclonal (IgG1) anti-VEGFR-2 (flk-1) antibody
optimal pH [10]: 6.0 | optimal buffer [11]: histidine at pH 6.0

B1: LY2127399: human monoclonal antibody that specifically binds to TNFSF13b polypeptides (antibody, chains of the INN, looked up, V domains shown)
VH: QVQLQQWGAGLLKPSETLSLTCAVYGGSFSGYYWSWIRQPPGKGLEWIGEINHSGSTNYNPSLKSRVTISVDTSKNQFSLKLSSVTAADTAVYYCARGYYDILTGYYYYFDYWGQGTLVTVSS
VL: EIVLTQSPATLSLSPGERATLSCRASQSVSRYLAWYQQKPGQAPRLLIYDASNRATGIPARFSGSGSGTDSTLTISSLEPEDFAVYYCQQRSNWPRTFGQGTKVEIK
Kd (hTNFSF13b): ≤ 10 nM
